Source: paper PMC8046669, “Structural basis of nucleosome transcription mediated by Chd1 and FACT” (Nature Structural & Molecular Biology, 2021)

Target: T1, S. cerevisiae FACT (heterodimer of Spt16 and Pob3) (S. cerevisiae, UniProt P32558 1-1035; Q04636 1-552)
T1 construct: Spt16, subunit of FACT, S. cerevisiae; Pob3, subunit of FACT, S. cerevisiae
Assay: SEC; size exclusion chromatography runs of Chd1 constructs with FACT, fractions analysed by SDS-PAGE
Details: both partners purified

T1 sequence (P32558 whole entry, chain 1 of 2): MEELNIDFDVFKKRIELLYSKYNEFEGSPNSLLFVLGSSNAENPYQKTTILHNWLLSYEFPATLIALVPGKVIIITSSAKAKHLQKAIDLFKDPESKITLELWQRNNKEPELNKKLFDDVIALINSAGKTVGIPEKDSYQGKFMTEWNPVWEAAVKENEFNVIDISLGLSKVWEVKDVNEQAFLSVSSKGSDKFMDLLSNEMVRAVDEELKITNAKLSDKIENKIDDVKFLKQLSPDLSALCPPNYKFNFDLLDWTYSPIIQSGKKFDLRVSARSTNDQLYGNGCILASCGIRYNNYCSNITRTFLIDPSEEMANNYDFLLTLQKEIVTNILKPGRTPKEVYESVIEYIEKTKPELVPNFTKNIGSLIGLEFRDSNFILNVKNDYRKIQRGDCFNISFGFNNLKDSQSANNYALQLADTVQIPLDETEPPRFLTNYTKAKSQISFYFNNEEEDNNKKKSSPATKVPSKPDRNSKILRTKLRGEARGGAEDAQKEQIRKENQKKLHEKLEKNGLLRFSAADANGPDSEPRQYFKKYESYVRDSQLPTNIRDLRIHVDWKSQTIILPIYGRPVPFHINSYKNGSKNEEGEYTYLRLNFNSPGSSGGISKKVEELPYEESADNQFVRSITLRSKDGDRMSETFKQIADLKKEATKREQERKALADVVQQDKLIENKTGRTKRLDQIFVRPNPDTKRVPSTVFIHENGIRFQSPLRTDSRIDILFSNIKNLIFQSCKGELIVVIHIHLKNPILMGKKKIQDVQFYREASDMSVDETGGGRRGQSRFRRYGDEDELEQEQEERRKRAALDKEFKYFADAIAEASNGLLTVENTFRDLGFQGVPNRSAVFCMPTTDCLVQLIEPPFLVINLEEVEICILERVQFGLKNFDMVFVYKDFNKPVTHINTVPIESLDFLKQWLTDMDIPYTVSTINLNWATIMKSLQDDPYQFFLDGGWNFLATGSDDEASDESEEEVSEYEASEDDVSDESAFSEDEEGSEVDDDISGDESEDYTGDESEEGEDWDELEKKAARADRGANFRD
T1 sequence (Q04636 whole entry, chain 2 of 2): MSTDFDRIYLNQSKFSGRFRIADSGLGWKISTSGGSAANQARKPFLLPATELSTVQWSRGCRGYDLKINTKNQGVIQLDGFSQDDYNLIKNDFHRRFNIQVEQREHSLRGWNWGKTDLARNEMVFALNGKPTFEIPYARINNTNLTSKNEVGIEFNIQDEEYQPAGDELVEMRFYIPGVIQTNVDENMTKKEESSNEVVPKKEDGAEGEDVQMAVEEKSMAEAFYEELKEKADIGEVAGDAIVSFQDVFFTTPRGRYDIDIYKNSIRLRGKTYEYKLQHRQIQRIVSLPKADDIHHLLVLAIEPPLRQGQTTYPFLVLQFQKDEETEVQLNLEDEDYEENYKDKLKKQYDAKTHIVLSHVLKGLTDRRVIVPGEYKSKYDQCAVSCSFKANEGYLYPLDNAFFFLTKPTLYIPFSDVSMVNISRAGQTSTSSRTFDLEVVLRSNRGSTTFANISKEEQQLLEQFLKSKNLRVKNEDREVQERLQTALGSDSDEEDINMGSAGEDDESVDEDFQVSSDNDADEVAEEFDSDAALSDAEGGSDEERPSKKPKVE

B1: S. cerevisiae Chd1 (enzyme)
chain: not shown
notes: Chd1, S. cerevisiae, chromatin remodeler; 1468 residues by the printed limits of the truncations; also called full-length Chd1
- binding result: binds
